Test results from publication PMC3284002 (The Journal of Cell Biology, 2012).

B1: KNL-1^1–505–6xHis Δ9 (domain or fragment)
chain: NSILKVRQAVETIEETVMNSGPSSTTTNRRVSFHNVKHVKQYDRDHGKILDATPVKEKITDTIGSDGILTPRGGNMDISESPACTSSFQVFGGGNLDKTMDMSLETTINENNETARLFETTRDPTLLYEKIVETTTKVTERIVSMPLDDTLAMFNTTNQEDKDMSVDRSVLFTIPKVPKHNATMNRTIPMDLDESKAAGGQCDETMNVFNFTNLEAAEMDTSKLDENNTMNAIRIPINSNVMPVDMDITEHHTLIEEKKNDTFGPSQLMDISAPQVQVNDTLAIFNSPRDICNKGLGVPQNLINIASNVVPVDMDITDQAVLNAEKKNDQFETSQLMDISIPKVLVNDTMAMFNSPKHVSKSSMDLEKTIEAADKSTKYPSIADEVEDLDMDMDITEQQPCEAGNQQNDGLQLQKEDLMDISVIRDSPAVNDTMAVFQSPARVKIGANNSIIDSQKSIVFGDEMSIDETQNDGTLTLPKSNVEVTTTNDVYTSLER

Assays:
[1] = target: the molecule itself; experiment: SEC
[2] = target: B1; experiment: pull-down
[3] = target: T1, KNL-1^1–505–6xHis, wild type (C. elegans, UniProt P34278 1-505); experiment: pull-down
T1 sequence: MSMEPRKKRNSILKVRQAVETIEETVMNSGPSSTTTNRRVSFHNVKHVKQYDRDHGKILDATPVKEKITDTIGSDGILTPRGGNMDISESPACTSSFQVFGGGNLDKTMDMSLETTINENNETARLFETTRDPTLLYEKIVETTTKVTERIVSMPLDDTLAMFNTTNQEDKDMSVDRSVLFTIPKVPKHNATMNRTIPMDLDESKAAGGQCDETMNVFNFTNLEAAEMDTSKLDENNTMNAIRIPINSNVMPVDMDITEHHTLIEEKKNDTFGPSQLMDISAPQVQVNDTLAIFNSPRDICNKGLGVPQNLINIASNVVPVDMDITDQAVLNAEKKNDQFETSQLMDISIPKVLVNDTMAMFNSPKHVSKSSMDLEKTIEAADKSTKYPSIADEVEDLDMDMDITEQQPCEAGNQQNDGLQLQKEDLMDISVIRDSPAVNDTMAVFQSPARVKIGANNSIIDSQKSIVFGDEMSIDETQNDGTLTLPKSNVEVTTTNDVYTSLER

Binder | binding result [1] | binding result [2] | binding result [3]
B1 | binds |  | 
GST–GSP-2 (enzyme) MDVEKLNLDNIISRLLEVRGSKPGKNVQLTESEIKGLCQKSREIFLSQPILLELEAPLKICGDVHGQYYDLLRLFEYGGFPPESNYLFLGDYVDRGKQSLETICLLLAYKIKYPENFFLLRGNHECASINRIYGFYDECKRRYNIKLWKTFTDCFNCLPVAAIIDEKIFCCHGGLSPDLQSMEQIRRIMRPTDVPDQGLLCDLLWSDPDKDVTGWGENDRGVSFTFGPEVVAKFLHKHDLDLICRAHQVVEDGYEFFAKRQLVTLFSAPNYCGEFDNAGSMMTVDETLMCSFQILKPADKKKYPYGAGGVGSNRPVTPPRNAPAAQPKKGAKK |  | binds | binds
